# Target: T1, Kv2.1 surface clusters (Mus musculus, UniProt Q03717)
# T1 construct: immunohistochemical staining of endogenous Kv2.1 channel distribution; from tissue; host or cells: cerebral cortex of C57BL/6J mice, fixed coronal brain sections
# T1 sequence (Q03717 1-857): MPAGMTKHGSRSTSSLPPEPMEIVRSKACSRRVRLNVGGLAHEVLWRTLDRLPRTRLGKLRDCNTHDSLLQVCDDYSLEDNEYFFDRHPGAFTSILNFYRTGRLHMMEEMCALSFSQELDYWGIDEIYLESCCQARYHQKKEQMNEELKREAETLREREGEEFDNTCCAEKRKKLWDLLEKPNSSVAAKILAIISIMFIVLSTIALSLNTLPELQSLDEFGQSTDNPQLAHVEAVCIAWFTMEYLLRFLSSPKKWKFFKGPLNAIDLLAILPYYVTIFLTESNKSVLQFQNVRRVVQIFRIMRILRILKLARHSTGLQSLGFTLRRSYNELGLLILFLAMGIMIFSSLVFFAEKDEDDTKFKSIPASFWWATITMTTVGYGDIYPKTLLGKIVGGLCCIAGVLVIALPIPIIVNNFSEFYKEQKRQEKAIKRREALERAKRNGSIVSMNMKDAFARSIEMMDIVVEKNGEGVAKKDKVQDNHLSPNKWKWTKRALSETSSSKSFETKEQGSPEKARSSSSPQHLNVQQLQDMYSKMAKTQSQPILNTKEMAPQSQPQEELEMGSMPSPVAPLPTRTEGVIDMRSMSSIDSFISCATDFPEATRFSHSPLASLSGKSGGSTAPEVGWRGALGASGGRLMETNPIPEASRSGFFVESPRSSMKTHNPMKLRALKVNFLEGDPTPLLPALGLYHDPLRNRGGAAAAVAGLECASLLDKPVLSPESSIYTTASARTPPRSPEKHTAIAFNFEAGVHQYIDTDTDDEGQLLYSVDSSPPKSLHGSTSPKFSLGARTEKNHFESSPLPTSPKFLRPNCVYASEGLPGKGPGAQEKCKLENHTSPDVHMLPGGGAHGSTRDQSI
# Assay: Immunohistochemistry of Kv2.1 clusters in mouse cerebral cortex after intraperitoneal peptide injection
# Assay type: in vivo
# Details: 6 nmol/g intraperitoneal, sacrificed 2 hours post-injection, mean±SEM (FIG. 5D)
# Description: Eight-week-old C57BL/6J male mice (28-30 g; Jackson, Bar Harbor, Me.) were administered IP injections of 6 nmol/g TAT-DP-2 (n=3) or TAT-Sc-2 peptide (n=3). Two hours post-injection, mice were anesthetized with 3% isoflurane (Henry Schein Animal Health, Dublin, Ohio) in a 3:1 […] gas mixture. Fifty mL of ice-cold 1× sterile PBS was transcardially perfused (5-10 mL/min), immediately followed by 50 mL of 4% sterile paraformaldehyde (PFA; 5-10 mL/min). Brains were removed and placed in 4% PFA at 4° C. for 24 hours, then transferred to 30% sucrose in 1× PBS at 4° C. for 48-72 hours. […]
# To analyze Kv2.1 distribution in live primary cortical neurons, cells were transfected with both a tdTomato construct and a GFP-tagged Kv2.1 construct (O'Connell, et al., J Neurosci. 26: 9609-9618, 2006) and imaged on a Nikon A1+ confocal microscope (Nikon, Tokyo, Japan). […] For live images of transfected neurons, object count parameters were customized to define a Kv2.1 cluster as an area of high intensity GFP fluorescence (compared to background), measuring 0.05 μm^2 or larger (Schulien et al., J Physiol (Lond). 594: 2647-2659, 2016). Kv2.1 cluster density was calculated by normalizing the number of Kv2.1 clusters counted to the somatic area of each neuron (#Kv2.1 clusters/μm^2). […]
row,Sequence,mean Kv2.1 cluster density in superficial cortex
1,"YGRKKRRQRRRDFSSIST [TAT-Sc-2, TAT-linked scramble control peptide]",565.70±50.72 #Kv2.1 clusters/image field
2,"YGRKKRRQRRRSIDSFTS [TAT-DP-2, TAT-linked declustering peptide 2]",301.10±39.60 #Kv2.1 clusters/image field
